Laboratory results taken from US20220363763A1 (ABL BIO, published 2022).

T1: mouse LAG3 ECD-Fc protein (mouse, UniProt Q61790 24-442)
T1 construct: extracellular domain; not shown: Fc part
T1 sequence (looked up): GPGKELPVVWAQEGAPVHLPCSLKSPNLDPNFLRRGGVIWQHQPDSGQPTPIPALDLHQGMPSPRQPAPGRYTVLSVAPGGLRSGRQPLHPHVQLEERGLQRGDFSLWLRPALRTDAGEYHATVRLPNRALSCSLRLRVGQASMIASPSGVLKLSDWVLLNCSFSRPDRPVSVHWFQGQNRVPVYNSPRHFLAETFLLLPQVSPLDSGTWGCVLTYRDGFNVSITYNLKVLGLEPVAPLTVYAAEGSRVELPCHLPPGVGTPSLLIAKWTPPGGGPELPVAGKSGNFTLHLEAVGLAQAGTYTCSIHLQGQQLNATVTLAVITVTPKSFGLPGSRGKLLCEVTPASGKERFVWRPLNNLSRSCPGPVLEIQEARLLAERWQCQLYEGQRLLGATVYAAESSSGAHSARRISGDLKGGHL

T2: recombinant his-tag human LAG3-ECD protein (human, UniProt P18627 23-450)
T2 construct: extracellular domain; not shown: his tag
T2 sequence (looked up): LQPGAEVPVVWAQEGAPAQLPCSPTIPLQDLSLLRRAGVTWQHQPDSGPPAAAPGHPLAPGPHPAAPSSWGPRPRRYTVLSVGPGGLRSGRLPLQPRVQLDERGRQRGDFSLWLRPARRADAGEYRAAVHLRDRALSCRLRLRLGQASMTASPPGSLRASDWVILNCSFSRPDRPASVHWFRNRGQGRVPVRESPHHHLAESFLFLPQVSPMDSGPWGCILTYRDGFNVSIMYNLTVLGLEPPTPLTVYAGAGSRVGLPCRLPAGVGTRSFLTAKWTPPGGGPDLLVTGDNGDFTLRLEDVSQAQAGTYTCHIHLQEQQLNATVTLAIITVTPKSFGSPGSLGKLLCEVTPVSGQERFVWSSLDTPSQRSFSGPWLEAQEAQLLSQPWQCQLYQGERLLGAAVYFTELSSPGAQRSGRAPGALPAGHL

T3: recombinant human LAG-3-ECD-human IgG1 fusion protein (human, UniProt P18627 23-450, biotin-labeled in the MHC class II blocking assays)
T3 construct: extracellular domain; also called LAG-3-huFc; LAG-3-ECD-huFc; not shown: human IgG1 Fc
T3 sequence (looked up): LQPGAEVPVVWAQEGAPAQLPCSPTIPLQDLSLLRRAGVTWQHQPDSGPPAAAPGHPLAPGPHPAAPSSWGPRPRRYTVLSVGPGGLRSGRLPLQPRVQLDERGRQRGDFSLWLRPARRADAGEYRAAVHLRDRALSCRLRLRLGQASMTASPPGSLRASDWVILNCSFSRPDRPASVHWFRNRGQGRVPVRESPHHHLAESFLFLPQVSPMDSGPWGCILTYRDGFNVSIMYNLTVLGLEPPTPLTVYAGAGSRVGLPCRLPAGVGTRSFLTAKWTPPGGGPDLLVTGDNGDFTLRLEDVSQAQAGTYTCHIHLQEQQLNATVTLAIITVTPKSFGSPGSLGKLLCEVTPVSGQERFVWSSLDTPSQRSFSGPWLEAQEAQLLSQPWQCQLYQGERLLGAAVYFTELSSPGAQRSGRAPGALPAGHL

T4: rat LAG3 ECD-Fc protein (rat, UniProt Q5BK54 24-442)
T4 construct: extracellular domain; not shown: Fc part
T4 sequence (looked up): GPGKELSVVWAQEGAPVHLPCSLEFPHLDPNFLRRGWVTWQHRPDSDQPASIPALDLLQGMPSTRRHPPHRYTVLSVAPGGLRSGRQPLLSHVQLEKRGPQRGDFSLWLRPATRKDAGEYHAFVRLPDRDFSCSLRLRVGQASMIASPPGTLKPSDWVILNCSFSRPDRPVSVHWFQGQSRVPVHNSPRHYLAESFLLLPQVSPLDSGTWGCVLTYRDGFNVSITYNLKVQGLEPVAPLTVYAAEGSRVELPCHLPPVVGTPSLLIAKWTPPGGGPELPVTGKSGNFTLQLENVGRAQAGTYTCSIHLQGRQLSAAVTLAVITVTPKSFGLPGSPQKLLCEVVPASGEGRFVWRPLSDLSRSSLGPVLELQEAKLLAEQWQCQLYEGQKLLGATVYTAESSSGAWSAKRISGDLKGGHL


What was measured:
[1] = molecular target: T1, mouse LAG3 ECD-Fc protein; assay: ELISA on coated mouse LAG3 ECD-Fc; EC50 table has no unit, x axis Ab(nM); fit value of a flat curve
Description: (§1) To evaluate the capability of the anti-LAG-3 antibodies to bind to human, rat, and mouse LAG3 the antibodies identified in Example 2.1 were evaluated for their binding property through ELISA. The human, rat and mouse LAG3 ECD-Fc protein were coated to ELISA plate at 1 μg/ml with 100 μl/well. Antibodies from Example 1 were serially diluted with ELISA diluent buffer. […] The resulting plates were washed and then labeled with anti-human IgG(Fab)-HRP antibody. The S31 can only bind to human LAG3. The S27 and T99 can bind to human LAG3 and rat/mouse LAG3 with lower potency. The S119 antibody can bind to human, rat and mouse LAG3 at high potency (FIGS. 22A-22D).

[2] = molecular target: T2, recombinant his-tag human LAG3-ECD …; assay: SPR Biacore T200, antibody captured by anti-human Fc, LAG3-ECD-his injected
How it was run: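 Antibodies captured on chip-coated anti-human Fc; his-tag human LAG3-ECD injected at serial concentrations of 0-4 nM, flow 30 μl/min. Dissociation phase 900 s or 550 s.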

[3] = molecular target: T3, recombinant human LAG-3-ECD-human IgG1 …; assay: ELISA on coated human LAG3 ECD-Fc; EC50 table has no unit, x axis Ab(nM)
Description: as §1

[4] = molecular target: T3, recombinant human LAG-3-ECD-human IgG1 …; assay: flow cytometry; blocking of biotin-LAG-3-ECD-huFc binding to MHC class II on Raji cells; the curve ends at about 20 nM without a lower plateau
Description: (§2) To evaluate the ability of anti-LAG-3 antibodies to block the binding of sLAG-3 to MHC class II receptor, an in vitro binding assay was designed using biotin-labeled LAG-3-ECD-huFc fusion proteins and Raji cells expressing MHC class II receptor. Antibodies from Example 1 were serially diluted from 20 μg/mL with FACS buffer and pre-incubated with 6 μg/mL of biotin-LAG-3-ECD-huFcc for 30 min at room temperature. The antibody mixture was then added to FcR blocked Raji cells and incubated for 30 min on ice. Cells were then washed with FACS buffer and subsequently stained with streptavidin PE for 30 min on ice and subsequently washed once with FACS buffer. Labeled cells were evaluated for fluorescence intensity by flow cytometry in a BD FACSCalibur™.

rat LAG3 ECD-Fc protein [5] = molecular target: T4, rat LAG3 ECD-Fc protein; assay: ELISA on coated rat LAG3 ECD-Fc; EC50 table has no unit, x axis Ab(nM); fit value of a flat curve
Description: as §1

[6] = molecular target: T3, recombinant human LAG-3-ECD-human IgG1 …; assay: flow cytometry; blocking of biotin-LAG-3-ECD-huFc binding to MHC class II on Raji cells
Description: as §2

[7] = molecular target: T1, mouse LAG3 ECD-Fc protein; assay: ELISA on coated mouse LAG3 ECD-Fc; EC50 table has no unit, x axis Ab(nM)
Description: as §1

rat LAG3 ECD-Fc protein [8] = molecular target: T4, rat LAG3 ECD-Fc protein; assay: ELISA on coated rat LAG3 ECD-Fc; EC50 table has no unit, x axis Ab(nM)
Description: as §1

[9] = molecular target: T3, recombinant human LAG-3-ECD-human IgG1 …; assay: ELISA on coated D1-D4 huFc; EC50 table has no unit, x axis Ab(nM)
Description: Briefly, D1-D4 huFc or ΔD1-D2 huFc was coated at 0.5 μg/ml overnight and then blocked by 5% BSA in PBS. The serially diluted antibodies (starting from 1 μg/ml and 1:3 serial dilution for 10 doses) were incubated with the coated antigen for 1 hr at room temperature. The resulting plates were washed with PBS/T and incubated with goat anti-mouse IgG-HRP for 1 h at room temperature. The plates were developed with TMB substrate and analyzed by spectrophotometer at OD 450-630 nm.

[10] = molecular target: T3, recombinant human LAG-3-ECD-human IgG1 …; assay: flow cytometry; blocking of biotin-LAG-3-ECD-huFc binding to MHC class II on Raji cells; remark: listed apart in the source
Description: as §2, with “Antibodies from Example 1 were serially diluted from 20 μg/mL with FACS buffer and pre-incubated with 6 μg/mL of biotin-LAG-3-ECD-huFcc for 30 min at room temperature.” left out

Row | Binder | EC50 [1] [nM] | Kd [2] [nM] | koff [2] [s⁻¹] | kon [2] [M⁻¹ s⁻¹] | EC50 [3] [nM] | IC50 [4] [nM] | EC50 (rat LAG3 ECD-Fc protein [5]) [nM] | IC50 [6] [nM] | EC50 [7] [nM] | EC50 (rat LAG3 ECD-Fc protein [8]) [nM] | EC50 [9] [nM] | IC50 [10] [nM]
1 | NLAG3-HDB169-S31 (antibody, human IgG1, V domains shown, Short label tied by its unique suffix) VH: QVQLVQSGAEVKKPGSSVKVSCKASGGTFSSYAISWVRQAPGQGLEWMGGIIPIFGTANYAQKFQGRVTITADESTSTAYMELSSLRSEDTAVYYCARDAGPVGYYGMDVWGQGTTVTVSS VL: AIRMTQSPSTLSASVGDRVTITCRASQGIAGWLAWYQQKPGKAPKLLIYAASSLQSGVPSRFSGSASGTDFTLTISNLQPEDFATYYCQQAKSFPLTFGGGTKVEIKR | 119 | 0.03 | 6.25e-05 | 2.08e+06 | 0.279 | 82.6 | ~271000 |  |  |  |  | 
2 | NLAG3-HDB169-S119 (antibody, human IgG1, V domains shown, Short label tied by its unique suffix) VH: QVQLVQSGAEVKKPGSSVKVSCKASGGTFSSYAISWVRQAPGQGLEWMGGIIPIFGTANYAQKFQGRVTITADESTSTAYMELSSLRSEDTAVYYCAASTLRVPNPPYWGQGTLVTVSS VL: EIVLTQSPGTLSLSPGERATLSCRASQSVSSYLAWYQQKPGQAPRLLIYGISSRATGIPDRFSGSGSGTDFTLTISSLQPEDFATYYCQQANNFPLTFGGGTKLEIKR |  | 0.00687 | 0.000149 | 2.17e+07 | 0.0321 |  |  | 9.29 | 0.0724 | 0.0387 |  | 
3 | 147H mouse monoclonal antibody (antibody, V domains shown, Mouse hybridoma antibody) VH: QVQLQQSGSELVRPGTSVKISCKASGYTFTNYWLGWIKQRPGHGLEWIGDIYPGGDYINYNEKFKGKATLSADTSSSTAYMQLSSLTSEDSAVYFCARPNLPGDYWGQGTSVTVSS VL: DIVMTQAAFSNPVTLGTSASISCRSSKSLLHSNGITYLYWYLQKPGQSPQLLIYQVSNLASGVPGRFSGSGSGTDFTLRISRVEAEDVGVYYCAQNLELPWTFGGGTKLEIK |  |  |  |  |  |  |  |  |  |  | 0.0979 | 21.4
